The target in assay [1] is 3.3 antibody (an anti-PEG antibody, IgG type). The assay is described as follows: ELISA, biotin-3.3Ab 0.0371 µg/mL on plate coated with poly-protein G, streptavidin-HRP, OD405.
Assay [2] has the same target. Nature of the assay: ELISA, biotin-3.3Ab 0.11 µg/mL on plate coated with poly-protein G, streptavidin-HRP, OD405. In general terms: ELISA stands for enzyme-linked immunosorbent assay.
Assay [3] shares this target. The assay is described as follows: ELISA, biotin-3.3Ab 0.33 µg/mL on plate coated with poly-protein G, streptavidin-HRP, OD405.
Assay [4] has the same target. Nature of the assay: ELISA, biotin-3.3Ab 0.0123 µg/mL on plate coated with poly-protein G, streptavidin-HRP, OD405.
Assay [5] shares this target. The assay is described as follows: ELISA, biotin-3.3Ab 1 µg/mL on plate coated with poly-protein G, streptavidin-HRP, OD405.

B1: poly-protein G (soluble; HA, eight repeats of C2 domain of protein G with linkers, six histidines) (protein, not shown: small tags and cut ends)
chain: TYKLVINGKTLKGETTTEAVDAATAEKVFKQYANDNGVDGEWTYDDATKTFTVTEGGGGSGGGGSVETYKLVINGKTLKGETTTEAVDAATAEKVFKQYANDNGVDGEWTYDDATKTFTVTEGGGGSGGGGSVETYKLVINGKTLKGETTTEAVDAATAEKVFKQYANDNGVDGEWTYDDATKTFTVTEGGGGSGGGGSVETYKLVINGKTLKGETTTEAVDAATAEKVFKQYANDNGVDGEWTYDDATKTFTVTEGGGGSGGGGSVETYKLVINGKTLKGETTTEAVDAATAEKVFKQYANDNGVDGEWTYDDATKTFTVTEGGGGSGGGGSVETYKLVINGKTLKGETTTEAVDAATAEKVFKQYANDNGVDGEWTYDDATKTFTVTEGGGGSGGGGSVETYKLVINGKTLKGETTTEAVDAATAEKVFKQYANDNGVDGEWTYDDATKTFTVTEGGGGSGGGGSVETYKLVINGKTLKGETTTEAVDAATAEKVFKQYANDNGVDGEWTYDDATKTFTVTEGGGGSGGGGSVHHHHHH
For the molecule B1, the fold antibody amount loaded vs commercial protein G-based plate was 5.8 times in assay [1]; 4 times in assay [2]; 1.3 times in assay [3]; 7.8 times in assay [4]; 1.15 times in assay [5]. In addition, the fold antibody amount loaded vs traditional polystyrene-based plate was determined as 20 times in assay [1]; 10 times in assay [2]; 2.2 times in assay [3]; 14 times in assay [4]; 1.3 times in assay [5].

The values above are taken from patent US20190018005A1.
